The record followed here is patent publication US20030235535A1 (University of California, published 2003).

The target of assay [1] is T1, mouse PK2 receptor (mouse, UniProt Q8K458 1-381).
T1 construct: Heptahelical G-protein-coupled receptor; also called mouse PKR2
In words: cell-based or functional assay.

Assay [2] has as its target PKR2 stably expressed in Chinese Hamster Ovary cells (CHO-PKR2). In words: cell-based or functional assay.
Assay [3] has as its target T1, mouse PK2 receptor. In words: radioligand binding assay with iodinated PK2 (FIG. 11). An excerpt:
An exemplary assay for determining binding of detectably labeled PK2, PK1 or PK2/PK1 chimera to PK2 receptor or PK1 receptor is the radioligand filter binding assay described in Li et al. Molecular Pharmacology 59:692-698 (2001)). […] A variety of other low- and high-throughput assays suitable for detecting selective binding interactions between a receptor and a ligand are known in the art. Such assays include, for example, fluorescence correlation spectroscopy (FCS) and scintillation proximity assays (SPA) reviewed in Major, J. Receptor and Signal Transduction Res. 15:595-607 (1995); and in Sterrer et al., J. Receptor and Signal Transduction Res. 17:511-520 (1997)). Binding assays can be performed in any suitable assay format including, for example, cell preparations such as whole cells or membranes that contain PK2 receptor or PK1 receptor, or substantially purified PK2 receptor polypeptide or PK1 receptor, either in solution or bound to a solid support.

T1 sequence (Q8K458 whole entry): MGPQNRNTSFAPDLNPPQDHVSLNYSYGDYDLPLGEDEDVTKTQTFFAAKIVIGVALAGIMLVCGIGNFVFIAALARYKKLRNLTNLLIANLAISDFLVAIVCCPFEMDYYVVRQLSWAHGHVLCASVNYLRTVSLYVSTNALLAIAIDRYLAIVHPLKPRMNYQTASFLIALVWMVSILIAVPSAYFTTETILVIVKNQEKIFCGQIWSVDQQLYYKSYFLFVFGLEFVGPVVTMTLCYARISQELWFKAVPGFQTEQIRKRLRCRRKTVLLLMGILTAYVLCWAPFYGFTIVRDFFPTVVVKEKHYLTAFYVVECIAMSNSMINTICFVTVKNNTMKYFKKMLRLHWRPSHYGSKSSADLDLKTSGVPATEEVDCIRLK

For the molecule “human PK2 (from UniProt Q9HC23 28-129) (ligand)”, the calcium ion mobilization (PK2 receptor activation assay), printed as kd in assay [1] came out at 2.9 nM.
Regarding “purified recombinant mouse PK2 (from UniProt Q9QXU7 27-128) (ligand)”, in assay [2], the EC50, calcium mobilization was 7.3 nM and the fold stimulation of CLOCK:BMAL1-mediated transcription of the 2.8 kb PK2 promoter (luciferase reporter) turned out to be 4 fold.

B1: ^125I-human PK2 (ligand)
chain: AVITGACDKDSQCGGGMCCAVSIWVKSIRICTPMGKLGDSCHPLTRKVPFFGRRMHHTCPCLPGLACLRTSFNRFICLAQK
modifications: radioiodinated with ^125I (paragraph 77 describes human PK2 radioiodinated at the core Tyr, citing Li et al. 2001)
notes: also called iodinated PK2
For orientation: Kd means the equilibrium constant for the complex coming apart. Higher therefore signals a looser complex. For B1, the Kd in assay [3] was about 1 nM.
